Results from patent US20240400708A1.

Target: feline FcRn complex (FcRn-α subunit and β-microglobulin), biotin labeled (feline)
Test: SPR, pH 6

Row | Binder | Kd [nM]
1 | feline IgG1a T256E (antibody, part only; not given: variable domains and light chain, not shown: another chain or arm of the molecule) constant: ASTTAPSVFPLAPSCGTTSGATVALACLVLGYFPEPVTVSWNSGALTSGVHTFPAVLQASGLYSLSSMVTVPSSRWLSDTFTCNVAHPPSNTKVDKTVRKTDHPPGPKPCDCPKCPPPEMLGGPSIFIFPPKPKDTLSISREPEVTCLVVDLGPDDSDVQITWFVDNTQVYTAKTSPREEQFNSTYRVVSVLPILHQDWLKGKEFKCKVNSKSLPSPIERTISKAKGQPHEPQVYVLPPAQEELSRNKVSVTCLIKSFHPPDIAVEWEITGQPEPENNYRTTPPQLDSDGTYFVYSKLSVDRSHWQRGNTYTCSVSHEALHSHHTQKSLTQSPGK | 50.9
2 | feline IgG1a T256M (antibody, part only; not given: Variable domains, not shown: another chain or arm of the molecule) constant: ASTTAPSVFPLAPSCGTTSGATVALACLVLGYFPEPVTVSWNSGALTSGVHTFPAVLQASGLYSLSSMVTVPSSRWLSDTFTCNVAHPPSNTKVDKTVRKTDHPPGPKPCDCPKCPPPEMLGGPSIFIFPPKPKDTLSISRMPEVTCLVVDLGPDDSDVQITWFVDNTQVYTAKTSPREEQFNSTYRVVSVLPILHQDWLKGKEFKCKVNSKSLPSPIERTISKAKGQPHEPQVYVLPPAQEELSRNKVSVTCLIKSFHPPDIAVEWEITGQPEPENNYRTTPPQLDSDGTYFVYSKLSVDRSHWQRGNTYTCSVSHEALHSHHTQKSLTQSPGK | 19.3
3 | feline IgG1a Q311W/D312P/L314K (antibody, part only; not given: Variable domains, not shown: another chain or arm of the molecule) constant: ASTTAPSVFPLAPSCGTTSGATVALACLVLGYFPEPVTVSWNSGALTSGVHTFPAVLQASGLYSLSSMVTVPSSRWLSDTFTCNVAHPPSNTKVDKTVRKTDHPPGPKPCDCPKCPPPEMLGGPSIFIFPPKPKDTLSISRTPEVTCLVVDLGPDDSDVQITWFVDNTQVYTAKTSPREEQFNSTYRVVSVLPILHWPWKKGKEFKCKVNSKSLPSPIERTISKAKGQPHEPQVYVLPPAQEELSRNKVSVTCLIKSFHPPDIAVEWEITGQPEPENNYRTTPPQLDSDGTYFVYSKLSVDRSHWQRGNTYTCSVSHEALHSHHTQKSLTQSPGK | 1230
4 | feline IgG1a T256G (antibody, part only; not given: variable domains and light chain, not shown: another chain or arm of the molecule) constant: ASTTAPSVFPLAPSCGTTSGATVALACLVLGYFPEPVTVSWNSGALTSGVHTFPAVLQASGLYSLSSMVTVPSSRWLSDTFTCNVAHPPSNTKVDKTVRKTDHPPGPKPCDCPKCPPPEMLGGPSIFIFPPKPKDTLSISRGPEVTCLVVDLGPDDSDVQITWFVDNTQVYTAKTSPREEQFNSTYRVVSVLPILHQDWLKGKEFKCKVNSKSLPSPIERTISKAKGQPHEPQVYVLPPAQEELSRNKVSVTCLIKSFHPPDIAVEWEITGQPEPENNYRTTPPQLDSDGTYFVYSKLSVDRSHWQRGNTYTCSVSHEALHSHHTQKSLTQSPGK | 76.9
5 | feline IgG1a T256H (antibody, part only; not given: Variable domains, not shown: another chain or arm of the molecule) constant: ASTTAPSVFPLAPSCGTTSGATVALACLVLGYFPEPVTVSWNSGALTSGVHTFPAVLQASGLYSLSSMVTVPSSRWLSDTFTCNVAHPPSNTKVDKTVRKTDHPPGPKPCDCPKCPPPEMLGGPSIFIFPPKPKDTLSISRHPEVTCLVVDLGPDDSDVQITWFVDNTQVYTAKTSPREEQFNSTYRVVSVLPILHQDWLKGKEFKCKVNSKSLPSPIERTISKAKGQPHEPQVYVLPPAQEELSRNKVSVTCLIKSFHPPDIAVEWEITGQPEPENNYRTTPPQLDSDGTYFVYSKLSVDRSHWQRGNTYTCSVSHEALHSHHTQKSLTQSPGK | 87.4
6 | feline IgG1a T256K (antibody, part only; not given: Variable domains, not shown: another chain or arm of the molecule) constant: ASTTAPSVFPLAPSCGTTSGATVALACLVLGYFPEPVTVSWNSGALTSGVHTFPAVLQASGLYSLSSMVTVPSSRWLSDTFTCNVAHPPSNTKVDKTVRKTDHPPGPKPCDCPKCPPPEMLGGPSIFIFPPKPKDTLSISRKPEVTCLVVDLGPDDSDVQITWFVDNTQVYTAKTSPREEQFNSTYRVVSVLPILHQDWLKGKEFKCKVNSKSLPSPIERTISKAKGQPHEPQVYVLPPAQEELSRNKVSVTCLIKSFHPPDIAVEWEITGQPEPENNYRTTPPQLDSDGTYFVYSKLSVDRSHWQRGNTYTCSVSHEALHSHHTQKSLTQSPGK | 107
7 | feline IgG1a T256L (antibody, part only; not given: Variable domains, not shown: another chain or arm of the molecule) constant: ASTTAPSVFPLAPSCGTTSGATVALACLVLGYFPEPVTVSWNSGALTSGVHTFPAVLQASGLYSLSSMVTVPSSRWLSDTFTCNVAHPPSNTKVDKTVRKTDHPPGPKPCDCPKCPPPEMLGGPSIFIFPPKPKDTLSISRLPEVTCLVVDLGPDDSDVQITWFVDNTQVYTAKTSPREEQFNSTYRVVSVLPILHQDWLKGKEFKCKVNSKSLPSPIERTISKAKGQPHEPQVYVLPPAQEELSRNKVSVTCLIKSFHPPDIAVEWEITGQPEPENNYRTTPPQLDSDGTYFVYSKLSVDRSHWQRGNTYTCSVSHEALHSHHTQKSLTQSPGK | 86.5
8 | feline IgG1a T256N (antibody, part only; not given: Variable domains, not shown: another chain or arm of the molecule) constant: ASTTAPSVFPLAPSCGTTSGATVALACLVLGYFPEPVTVSWNSGALTSGVHTFPAVLQASGLYSLSSMVTVPSSRWLSDTFTCNVAHPPSNTKVDKTVRKTDHPPGPKPCDCPKCPPPEMLGGPSIFIFPPKPKDTLSISRNPEVTCLVVDLGPDDSDVQITWFVDNTQVYTAKTSPREEQFNSTYRVVSVLPILHQDWLKGKEFKCKVNSKSLPSPIERTISKAKGQPHEPQVYVLPPAQEELSRNKVSVTCLIKSFHPPDIAVEWEITGQPEPENNYRTTPPQLDSDGTYFVYSKLSVDRSHWQRGNTYTCSVSHEALHSHHTQKSLTQSPGK | 77.4
9 | feline IgG1a S434T (antibody, part only; not given: Variable domains, not shown: another chain or arm of the molecule) constant: ASTTAPSVFPLAPSCGTTSGATVALACLVLGYFPEPVTVSWNSGALTSGVHTFPAVLQASGLYSLSSMVTVPSSRWLSDTFTCNVAHPPSNTKVDKTVRKTDHPPGPKPCDCPKCPPPEMLGGPSIFIFPPKPKDTLSISRTPEVTCLVVDLGPDDSDVQITWFVDNTQVYTAKTSPREEQFNSTYRVVSVLPILHQDWLKGKEFKCKVNSKSLPSPIERTISKAKGQPHEPQVYVLPPAQEELSRNKVSVTCLIKSFHPPDIAVEWEITGQPEPENNYRTTPPQLDSDGTYFVYSKLSVDRSHWQRGNTYTCSVSHEALHTHHTQKSLTQSPGK | 10.6
10 | feline IgG1a T256I (antibody, part only; not given: Variable domains, not shown: another chain or arm of the molecule) constant: ASTTAPSVFPLAPSCGTTSGATVALACLVLGYFPEPVTVSWNSGALTSGVHTFPAVLQASGLYSLSSMVTVPSSRWLSDTFTCNVAHPPSNTKVDKTVRKTDHPPGPKPCDCPKCPPPEMLGGPSIFIFPPKPKDTLSISRIPEVTCLVVDLGPDDSDVQITWFVDNTQVYTAKTSPREEQFNSTYRVVSVLPILHQDWLKGKEFKCKVNSKSLPSPIERTISKAKGQPHEPQVYVLPPAQEELSRNKVSVTCLIKSFHPPDIAVEWEITGQPEPENNYRTTPPQLDSDGTYFVYSKLSVDRSHWQRGNTYTCSVSHEALHSHHTQKSLTQSPGK | 115

Further lines, results first:

Row | Kd [nM] | Binder
11 | 27.7 | feline IgG1a T256R (antibody, part only; not given: Variable domains, not shown: another chain or arm of the molecule) constant: ASTTAPSVFPLAPSCGTTSGATVALACLVLGYFPEPVTVSWNSGALTSGVHTFPAVLQASGLYSLSSMVTVPSSRWLSDTFTCNVAHPPSNTKVDKTVRKTDHPPGPKPCDCPKCPPPEMLGGPSIFIFPPKPKDTLSISRRPEVTCLVVDLGPDDSDVQITWFVDNTQVYTAKTSPREEQFNSTYRVVSVLPILHQDWLKGKEFKCKVNSKSLPSPIERTISKAKGQPHEPQVYVLPPAQEELSRNKVSVTCLIKSFHPPDIAVEWEITGQPEPENNYRTTPPQLDSDGTYFVYSKLSVDRSHWQRGNTYTCSVSHEALHSHHTQKSLTQSPGK
12 | 25.2 | feline IgG1a T256W (antibody, part only; not given: Variable domains, not shown: another chain or arm of the molecule) constant: ASTTAPSVFPLAPSCGTTSGATVALACLVLGYFPEPVTVSWNSGALTSGVHTFPAVLQASGLYSLSSMVTVPSSRWLSDTFTCNVAHPPSNTKVDKTVRKTDHPPGPKPCDCPKCPPPEMLGGPSIFIFPPKPKDTLSISRWPEVTCLVVDLGPDDSDVQITWFVDNTQVYTAKTSPREEQFNSTYRVVSVLPILHQDWLKGKEFKCKVNSKSLPSPIERTISKAKGQPHEPQVYVLPPAQEELSRNKVSVTCLIKSFHPPDIAVEWEITGQPEPENNYRTTPPQLDSDGTYFVYSKLSVDRSHWQRGNTYTCSVSHEALHSHHTQKSLTQSPGK
13 | 22 | feline IgG1a T256Y (antibody, part only; not given: Variable domains, not shown: another chain or arm of the molecule) constant: ASTTAPSVFPLAPSCGTTSGATVALACLVLGYFPEPVTVSWNSGALTSGVHTFPAVLQASGLYSLSSMVTVPSSRWLSDTFTCNVAHPPSNTKVDKTVRKTDHPPGPKPCDCPKCPPPEMLGGPSIFIFPPKPKDTLSISRYPEVTCLVVDLGPDDSDVQITWFVDNTQVYTAKTSPREEQFNSTYRVVSVLPILHQDWLKGKEFKCKVNSKSLPSPIERTISKAKGQPHEPQVYVLPPAQEELSRNKVSVTCLIKSFHPPDIAVEWEITGQPEPENNYRTTPPQLDSDGTYFVYSKLSVDRSHWQRGNTYTCSVSHEALHSHHTQKSLTQSPGK
14 | 57.6 | feline IgG1a T256P (antibody, part only; not given: Variable domains, not shown: another chain or arm of the molecule) constant: ASTTAPSVFPLAPSCGTTSGATVALACLVLGYFPEPVTVSWNSGALTSGVHTFPAVLQASGLYSLSSMVTVPSSRWLSDTFTCNVAHPPSNTKVDKTVRKTDHPPGPKPCDCPKCPPPEMLGGPSIFIFPPKPKDTLSISRPPEVTCLVVDLGPDDSDVQITWFVDNTQVYTAKTSPREEQFNSTYRVVSVLPILHQDWLKGKEFKCKVNSKSLPSPIERTISKAKGQPHEPQVYVLPPAQEELSRNKVSVTCLIKSFHPPDIAVEWEITGQPEPENNYRTTPPQLDSDGTYFVYSKLSVDRSHWQRGNTYTCSVSHEALHSHHTQKSLTQSPGK
15 | 19.5 | feline IgG1a T256V (antibody, part only; not given: Variable domains, not shown: another chain or arm of the molecule) constant: ASTTAPSVFPLAPSCGTTSGATVALACLVLGYFPEPVTVSWNSGALTSGVHTFPAVLQASGLYSLSSMVTVPSSRWLSDTFTCNVAHPPSNTKVDKTVRKTDHPPGPKPCDCPKCPPPEMLGGPSIFIFPPKPKDTLSISRVPEVTCLVVDLGPDDSDVQITWFVDNTQVYTAKTSPREEQFNSTYRVVSVLPILHQDWLKGKEFKCKVNSKSLPSPIERTISKAKGQPHEPQVYVLPPAQEELSRNKVSVTCLIKSFHPPDIAVEWEITGQPEPENNYRTTPPQLDSDGTYFVYSKLSVDRSHWQRGNTYTCSVSHEALHSHHTQKSLTQSPGK
16 | 58.6 | feline IgG1a T256Q (antibody, part only; not given: Variable domains, not shown: another chain or arm of the molecule) constant: ASTTAPSVFPLAPSCGTTSGATVALACLVLGYFPEPVTVSWNSGALTSGVHTFPAVLQASGLYSLSSMVTVPSSRWLSDTFTCNVAHPPSNTKVDKTVRKTDHPPGPKPCDCPKCPPPEMLGGPSIFIFPPKPKDTLSISRQPEVTCLVVDLGPDDSDVQITWFVDNTQVYTAKTSPREEQFNSTYRVVSVLPILHQDWLKGKEFKCKVNSKSLPSPIERTISKAKGQPHEPQVYVLPPAQEELSRNKVSVTCLIKSFHPPDIAVEWEITGQPEPENNYRTTPPQLDSDGTYFVYSKLSVDRSHWQRGNTYTCSVSHEALHSHHTQKSLTQSPGK
